The experiment relates to MDA-MB-231 cells. The experiment can be described thus: MDA-MB-231 cell migration (matrixgel / transwell). It counts as cell-based. As to conditions: 10 nM E2 or 10 ng/ml EGF alone, 20 hours.

Data on one molecule can be found in US11911397B2, “Anordrin compositions and methods for treating diseases” (Zhejiang Jiachi Development Pharmaceuticals LTD, priority 2014, dated 2024).

Description: As anordrin has been reported as an anti-angiogenic agent resulting in inhibition of cell migration and invasion (16), we studied its ability to modulate MDA-MB-231 cell migration using matrixgel. […] After 20 hours migrated cells were stained and quantified using a plate reader at 560 nm.
Transwell and flow cytometry assay: Cells were starved for 48 hours in phenol red free medium containing 5% charcoal-stripped FBS, and then changed into phenol red free medium for an additional 24 hours. Transwell was performed following the Chemicon kit instructions (CAT #ECM551). Briefly, cells were trypsinized, washed using 1×DPBS containing Ca2+ and Mg2+ (Sigma) and resuspensed in serum and phenol red free medium at a cell density of 0.5×10^6 cells/ml.

B1: EGF: EGF, binds to Her1; used at 10 ng/ml as stimulus (protein, UniProt P01133 23-1207, looked up)
Pro-epidermal growth factor: PQHWSCPEGTLAGNGNSTCVGPAPFLIFSHGNSIFRIDTEGTNYEQLVVDAGVSVIMDFHYNEKRIYWVDLERQLLQRVFLNGSRQERVCNIEKNVSGMAINWINEEVIWSNQQEGIITVTDMKGNNSHILLSALKYPANVAVDPVERFIFWSSEVAGSLYRADLDGVGVKALLETSEKITAVSLDVLDKRLFWIQYNREGSNSLICSCDYDGGSVHISKHPTQHNLFAMSLFGDRIFYSTWKMKTIWIANKHTGKDMVRINLHSSFVPLGELKVVHPLAQPKAEDDTWEPEQKLCKLRKGNCSSTVCGQDLQSHLCMCAEGYALSRDRKYCEDVNECAFWNHGCTLGCKNTPGSYYCTCPVGFVLLPDGKRCHQLVSCPRNVSECSHDCVLTSEGPLCFCPEGSVLERDGKTCSGCSSPDNGGCSQLCVPLSPVSWECDCFPGYDLQLDEKSCAASGPQPFLLFANSQDIRHMHFDGTDYGTLLSQQMGMVYALDHDPVENKIYFAHTALKWIERANMDGSQRERLIEEGVDVPEGLAVDWIGRRFYWTDRGKSLIGRSDLNGKRSKIITKENISQPRGIAVHPMAKRLFWTDTGINPRIESSSLQGLGRLVIASSDLIWPSGITIDFLTDKLYWCDAKQSVIEMANLDGSKRRRLTQNDVGHPFAVAVFEDYVWFSDWAMPSVMRVNKRTGKDRVRLQGSMLKPSSLVVVHPLAKPGADPCLYQNGGCEHICKKRLGTAWCSCREGFMKASDGKTCLALDGHQLLAGGEVDLKNQVTPLDILSKTRVSEDNITESQHMLVAEIMVSDQDDCAPVGCSMYARCISEGEDATCQCLKGFAGDGKLCSDIDECEMGVPVCPPASSKCINTEGGYVCRCSEGYQGDGIHCLDIDECQLGEHSCGENASCTNTEGGYTCMCAGRLSEPGLICPDSTPPPHLREDDHHYSVRNSDSECPLSHDGYCLHDGVCMYIEALDKYACNCVVGYIGERCQYRDLKWWELRHAGHGQQQKVIVVAVCVVVLVMLLLLSLWGAHYYRTQKLLSKNPKNPYEESSRDVRSRRPADTEDGMSSCPQPWFVVIKEHQDLKNGGQPVAGEDGQAADGSMQPTSWRQEPQLCGMGTEQGCWIPVSSDKGSCPQVMERSFHMPSYGTQTLEGGVEKPHSLLSANPLWQQRALDPPHQMELTQ
modifications: Pro-epidermal growth factor
notes: used at 10 ng/ml as stimulus
In the case of B1, the MDA-MB-231 cell migration entry is “slightly enhanced”.
